Data as given in article PMC10234869.

B1: Frey regulator of sperm-oocyte fusion 1 with C-terminal 3xFLAG tag (Frey1-3xFLAG), wild type [murine] / Signal Peptide Peptidase-like 2c, C-terminally myc-tagged (SPPL2c-myc) [murine] (parent)
chain 1: MVLAMLGALYPRAGLSLFLFYLILAGALLRPQPQRSQQSVPEEFSAPLELLQPLSGLVDDYGLRPKHPRPGGPRPLLSQAQQRKRDGPNMADYYYDVNL
chain 2: EYGLVRVVSKNWSKDYCVLYSSDYVNLPRDLHHAPLLSLHDGTKTPWCPDEDSFHQAQDSSPRQRPLHQTTTMVTRGNCSFYAKGWLAQDQGAQGLLIVSRARNQQCSDTISKPQDPSKPWPALTIPVAVLRYTDMLDIVSHTYGDTDVRVAMFAPLEPVTDYNMAIIFILAVGTVAAGGYWAGLMEANKLQRRQAQRGGGLGGHNQQQTVAAERSQRAWEDDDFEDAPMDFTPAMTGAVVTMSCSIMILLYFFYDCFVYVMIGIFSLGASTGLYSCLAPILCHLPLWRYQWVLPGQRVSVTWPLLLLAGLCAMVTVLWVIHRNEDHWAWLLQDTLGVAYCLFVLRRVRLPTFKNCTLFLLALLAFDVFFVFITPLFTKTGESIMVEVASGPADSSSHERLPMVLKVPRLSFSALTLCNQPFSILGFGDIVVPGFLVAYCHRFDMQVQSRQVYYMACTVAYAVGLLVTFVAMILMQMGQPALLYLVSSTLLTSLAVATCRQEFTLFWTGQGRAKIPAEPVAQPCIASAVGSKMKLEDAKDSRTTNRFEQAVDGESGDLESSTGDDMAEMVTLSEDEATSPEGHSESSEGWSDTNLDPNELPSGSPMALEAMLIPLIQPIPHPSELGHIRTQSRVHDSSLPWMGLHKRKGLKVKKSMSAQAPL

Variants of: B1
Test: co-immunoprecipitation (anti-FLAG IP, Western blot quantification)
Conditions: with Signal Peptide Peptidase-like 2c, transiently transfected HEK cells, n = 6, parent: 100, read off a plot
Work on chain 1 P11L G14L S16T G26A yielded a percent of parent (% of Frey1 Wt) of 17.

Variants of: B1
Test: competition co-immunoprecipitation pulling on Frey1 (anti-FLAG IP, Western blot quantification)
Conditions: with Signal Peptide Peptidase-like 2c, co-expression of HA-HO-1 as competitor, value is relative to the same Frey1 variant without HA-HO-1 (EV = 100), transiently transfected HEK cells, n = 3, parent: 100, read off a plot
With chain 1 P11L G14L S16T G26A the co-precipitated SPPL2c, percent of no-competitor control was 59 % of EV.
